PMC4304843, “Human Mitochondrial Hsp70 (Mortalin): Shedding Light on ATPase Activity, Interaction with Adenosine Nucleotides, Solution Structure and Domain Organization” (PLoS ONE, 2015)

Columns and labels:
[1] = test system: T1, Nc1ncnc2c1ncn2[C@@H]1O[C@H](COP(=O)(O)OP(=O)(O)OP(=O)(O)O)[C@@H](O)[C@H]1O; test: ATPase, EnzChek phosphate assay, Michaelis-Menten fit; format: biochemical, Homo sapiens; details: TKP buffer without phosphate pH 7.5, 2 mM Mg2+, 37°C, no co-chaperone
T1 construct: monomeric SEC fraction, alkaline phosphatase treated
Text: ATPase, EnzChek phosphate assay, Michaelis-Menten fit on human mortalin (mtHsp70, GRP75, HspA9, PBP74)

[2] = target: Human mitochondrial Hsp70 (mortalin), recombinant (human) (UniProt P38646); test: SEC; analytical SEC (Superdex 200 GL 10/30, TKP buffer pH 7.5) of mortalin directly after Ni2+ affinity chromatography

Chain of human mortalin (mtHsp70, GRP75, HspA9, PBP74) (Homo sapiens) (chain, as listed by the source): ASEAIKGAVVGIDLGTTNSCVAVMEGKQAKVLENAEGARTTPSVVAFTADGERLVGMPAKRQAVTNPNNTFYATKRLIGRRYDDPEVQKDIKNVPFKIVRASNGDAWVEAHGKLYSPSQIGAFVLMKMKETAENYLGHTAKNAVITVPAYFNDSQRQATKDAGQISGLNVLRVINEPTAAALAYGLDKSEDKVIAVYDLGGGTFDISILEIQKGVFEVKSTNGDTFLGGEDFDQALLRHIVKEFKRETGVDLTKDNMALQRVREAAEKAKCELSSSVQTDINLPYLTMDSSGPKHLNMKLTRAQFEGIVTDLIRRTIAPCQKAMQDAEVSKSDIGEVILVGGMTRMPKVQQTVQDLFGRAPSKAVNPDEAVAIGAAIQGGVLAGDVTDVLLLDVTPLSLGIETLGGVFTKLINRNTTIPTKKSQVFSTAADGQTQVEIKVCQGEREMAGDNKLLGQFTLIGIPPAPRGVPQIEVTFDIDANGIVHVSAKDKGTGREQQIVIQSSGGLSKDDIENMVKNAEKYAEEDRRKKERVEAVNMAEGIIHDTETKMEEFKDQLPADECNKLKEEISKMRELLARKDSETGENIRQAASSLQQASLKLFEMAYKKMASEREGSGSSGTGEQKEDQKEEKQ

Substance	Km [1] [µM]	kcat [1] [s⁻¹]	stoichiometry N [2]
human mortalin (mtHsp70, GRP75, HspA9, PBP74) (Homo sapiens)	190 ± 20	0.00252 ± 3.33e-05	–
Human mitochondrial Hsp70 (mortalin), recombinant (from UniProt P38646 47-679) (natural protein)	–	–	2
